From the RNAGym collection of RNA variant scans (doi:10.7554/elife.80360) come the findings set out here.

The chains are these.
B1: Twister Ribozyme (parent)
chain: AACACUGCCAAUGCCGGUCCCAAGCCCGGAUAAAAGUGGAGGGGGCGG

Variants of B1 are the subject of this series. Nature of the series: self-cleavage, relative activity (ratio to wild type); higher = more cleavage; co-transcriptional.
As to G16A G38A, the self-cleavage worked out at 0.867.

Take G16A G38C: the self-cleavage was determined as 0.761.

Take G16U A23C: the self-cleavage is 0.115.

Consider G16U A23G, for which the self-cleavage came out at 0.0652.

For the variant G16C A33U, the self-cleavage came out at 0.359.

Take G16C A33C: the self-cleavage worked out at 0.427.

With G17C A40G, the self-cleavage stood at 0.0717.

Turning to G16A G17A, the self-cleavage was found to be 0.281.

For G16A G17C, the self-cleavage was 0.139.

For G17C A35G, the self-cleavage was 0.0629.

Consider G17C A35C, for which the self-cleavage came to 0.0982.

As to G17U G47A, the self-cleavage turned out to be 0.237.

Consider G17U G43U, for which the self-cleavage is 0.12.

For the variant G17A U31G, the self-cleavage was 0.706.

For G16C G41A, the self-cleavage was 0.143.

With G16U G38A, the self-cleavage was found to be 0.935.

In the case of G16U G38C, the self-cleavage came out at 1.02.

For G17U C20U, the self-cleavage amounted to 0.167.

On to G17U C20G, for which the self-cleavage was determined as 0.105.

Turning to G17C G48A, the self-cleavage was found to be 0.133.

For the variant G17C G48U, the self-cleavage stood at 0.163.

Regarding G16U G24C, the self-cleavage was determined as 0.118.

Take G17A A23C: the self-cleavage was 0.0909.

Consider G17A A23G, for which the self-cleavage was 0.0743.

For the variant G17A A23U, the self-cleavage was 0.28.

Turning to G16A C20A, the self-cleavage amounted to 0.12.

In the case of G16A C20U, the self-cleavage was found to be 0.837.

G17A G36A: the self-cleavage is 0.141.

On to G17A G36U, for which the self-cleavage was 0.108.

Take G17A G36C: the self-cleavage is 0.118.

As to G17A G45U, the self-cleavage was found to be 0.147.

Regarding G17A G45A, the self-cleavage was found to be 0.386.

In the case of G17C A30G, the self-cleavage stood at 0.0984.

On to G17C A30C, for which the self-cleavage is 0.101.

With G17C A30U, the self-cleavage was found to be 0.143.

As for G16U G41C, the self-cleavage amounted to 0.212.

Consider G16U G41U, for which the self-cleavage was found to be 0.35.

Consider G16U G28U, for which the self-cleavage came out at 1.07.

Take G17A A33C: the self-cleavage amounted to 0.384.

Take G17A A33U: the self-cleavage was 0.614.

Take G17C U18G: the self-cleavage is 0.0748.

With G17C U18A, the self-cleavage amounted to 0.0862.

For the variant G17A C26U, the self-cleavage came to 0.923.

Regarding C15U G38U, the self-cleavage is 0.76.

With C15U G38A, the self-cleavage was determined as 0.831.

With G16U C26U, the self-cleavage worked out at 0.15.

For the variant G16U C26A, the self-cleavage was found to be 0.45.

On to G16U C26G, for which the self-cleavage turned out to be 0.136.

Take G16U C27G: the self-cleavage came out at 0.941.

For the variant G16U C27U, the self-cleavage came out at 1.16.

As to C15U G47U, the self-cleavage stood at 0.8.

Turning to C15U G47A, the self-cleavage was 0.84.

Take G16C C21A: the self-cleavage amounted to 0.0849.

Take G16C G28C: the self-cleavage was 0.306.

Consider C15U G24U, for which the self-cleavage was 0.122.

For G17A G48U, the self-cleavage worked out at 0.603.

Regarding G17A G48C, the self-cleavage came out at 0.724.

G16C C46U: the self-cleavage came to 0.78.

In the case of G16C C19G, the self-cleavage stood at 0.1.

Take C15U C26U: the self-cleavage is 0.117.

As to C15U C26G, the self-cleavage came out at 0.0693.

For G17U A35U, the self-cleavage stood at 0.372.

As to G17C G47U, the self-cleavage turned out to be 0.0863.

For C15U C25A, the self-cleavage was 0.178.

For C15U C25U, the self-cleavage was 0.914.

With G16C G47U, the self-cleavage was 0.602.

On to G16C G47A, for which the self-cleavage was 0.165.

Turning to G16C G47C, the self-cleavage came out at 0.268.

Turning to G17U A32U, the self-cleavage came to 0.294.

With G17U A32G, the self-cleavage stood at 0.345.

Take G17U A32C: the self-cleavage came to 0.263.

On to G17A C27A, for which the self-cleavage was 0.221.

On to G17U A23G, for which the self-cleavage worked out at 0.0937.

G17U A23U: the self-cleavage worked out at 0.159.

Regarding G17U A23C, the self-cleavage came to 0.0677.

Regarding G16C G39U, the self-cleavage came to 0.144.

On to C15U G39U, for which the self-cleavage stood at 0.27.

In the case of G16A C25G, the self-cleavage was determined as 0.298.

Take G16A C25A: the self-cleavage was determined as 0.117.

Take G17A A32C: the self-cleavage came to 0.303.

Take G17A A32G: the self-cleavage came to 0.6.

As to G17A A32U, the self-cleavage was 0.476.

Turning to G16C G36A, the self-cleavage amounted to 0.188.

Turning to G16A A40C, the self-cleavage was found to be 0.122.

For the variant G16U A30G, the self-cleavage turned out to be 0.761.

On to C15U G17C, for which the self-cleavage was determined as 0.0992.

On to C15U G44A, for which the self-cleavage is 0.935.

Turning to G16A C46G, the self-cleavage was found to be 0.813.

For G17U G39C, the self-cleavage stood at 0.0939.

Consider G17U G39U, for which the self-cleavage stood at 0.108.

Consider G17C G42A, for which the self-cleavage was 0.0674.

As for G17C G42C, the self-cleavage stood at 0.11.

Turning to G17U, the self-cleavage was determined as 0.497.

As for G17A, the self-cleavage amounted to 0.783.

G17C: the self-cleavage was found to be 0.153.

As to G16U G42C, the self-cleavage came out at 0.25.

With G17U G28C, the self-cleavage is 0.0949.

As to G17A G29U, the self-cleavage is 0.336.

For the variant G17A G29A, the self-cleavage came out at 0.308.

On to G17A G29C, for which the self-cleavage amounted to 0.222.

For C15U C21U, the self-cleavage amounted to 0.101.

On to C15U C21A, for which the self-cleavage came to 0.138.

Regarding G16C A40U, the self-cleavage was found to be 0.114.

With G16C A40C, the self-cleavage worked out at 0.0741.

With G16C C25U, the self-cleavage was 0.188.

Regarding G16C C25G, the self-cleavage turned out to be 0.0947.

In the case of G16U G44C, the self-cleavage is 1.05.

As for G16U G44U, the self-cleavage came to 1.14.

On to G16U G44A, for which the self-cleavage was 1.01.

Regarding G17U A34U, the self-cleavage stood at 0.159.

Turning to G17A C46A, the self-cleavage came to 0.322.

Consider G17A C46U, for which the self-cleavage was 0.774.

As for G17A C46G, the self-cleavage turned out to be 0.592.

With G17A G39A, the self-cleavage came out at 0.153.

Take G16C C27A: the self-cleavage came out at 0.684.

For the variant G16C C27G, the self-cleavage worked out at 0.608.

Turning to G17C G43U, the self-cleavage was determined as 0.0878.

With G17C G43A, the self-cleavage turned out to be 0.0872.

As for G16C U37G, the self-cleavage is 0.134.

Take G17A C21U: the self-cleavage stood at 0.0984.

With G17A C21A, the self-cleavage is 0.101.

Take C15U G48C: the self-cleavage came out at 1.07.

For the variant G17C C21U, the self-cleavage was 0.0868.

With G17C C21G, the self-cleavage stood at 0.0972.

For G17U A40U, the self-cleavage was 0.145.

As to G16U G45A, the self-cleavage stood at 0.608.

In the case of G16A A30G, the self-cleavage amounted to 0.958.

With G16A A30C, the self-cleavage amounted to 0.91.

Consider G16A A22G, for which the self-cleavage came out at 0.155.

Turning to G16A A22C, the self-cleavage turned out to be 0.941.

Regarding G16A A22U, the self-cleavage is 0.631.

Consider G17C G38C, for which the self-cleavage amounted to 0.054.

For the variant G17C G38A, the self-cleavage came to 0.0789.

For G17C C26G, the self-cleavage is 0.446.

For the variant G16C A23U, the self-cleavage turned out to be 0.0704.

With G16C A23G, the self-cleavage worked out at 0.092.

Consider G17U C46U, for which the self-cleavage is 0.625.

Turning to G17U C46A, the self-cleavage amounted to 0.274.

As for G17C C27A, the self-cleavage came out at 0.0647.

As to G17A G47C, the self-cleavage is 0.224.

For the variant G17A G47A, the self-cleavage turned out to be 0.297.

Take G17A G47U: the self-cleavage was 0.489.

For G16U C25U, the self-cleavage worked out at 0.809.

Consider G17U C27A, for which the self-cleavage is 0.148.

For G16A G44C, the self-cleavage is 0.871.

G17U G44U: the self-cleavage was determined as 0.374.

Regarding G17U G44A, the self-cleavage worked out at 0.219.

For C15U C20A, the self-cleavage worked out at 0.176.

On to C15U C20G, for which the self-cleavage was 0.135.

On to G16A A23U, for which the self-cleavage stood at 0.228.

In the case of G17A G28C, the self-cleavage was found to be 0.393.

Turning to G17A G28A, the self-cleavage was 0.296.

Consider G17C G44U, for which the self-cleavage came out at 0.124.

As for G16A G39U, the self-cleavage worked out at 0.187.

Regarding G16C A34U, the self-cleavage turned out to be 0.207.

Take G16U C46A: the self-cleavage was found to be 0.662.

Turning to G16U C46U, the self-cleavage is 1.02.

Take G16U A34G: the self-cleavage is 0.396.

With G16U A34C, the self-cleavage turned out to be 0.111.

On to G16U A34U, for which the self-cleavage was found to be 0.577.

As to G17A A30C, the self-cleavage is 0.275.

On to G17U A30U, for which the self-cleavage was found to be 0.485.

For G17U A30C, the self-cleavage was determined as 0.147.

G16U G36C: the self-cleavage was determined as 0.156.

Regarding G16A G29U, the self-cleavage was determined as 0.663.

G16A G29C: the self-cleavage was determined as 0.339.

In the case of G16C A35G, the self-cleavage amounted to 0.483.
